We go through one substance from patent US20170037124A1.

What all share (assay): SPR, blank anti-hFc surface, 500 nM peptide, 25C
(SPR reads the build-up and loss of mass on a sensor chip optically.)

In experiment [1] the target is peptide from the N-terminal coiled-coil region of human ANGPTL3 (hANGPTL3 peptide, SEQ ID NO: 338) (human).
For experiment [2], the target named is human ANGPTL8 peptide (hANGPTL8 peptide, SEQ ID NO: 337) (human).
The target of experiment [3] is peptide from the N-terminal coiled-coil region of human ANGPTL4 (hANGPTL4 peptide, SEQ ID NO: 339) (human).
Chain of peptide from the N-terminal coiled-coil region of human ANGPTL4 (hANGPTL4 peptide, SEQ ID NO: 339) (human) (peptide, as listed by the source): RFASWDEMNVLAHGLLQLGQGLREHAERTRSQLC

Chain of human ANGPTL8 peptide (hANGPTL8 peptide, SEQ ID NO: 337) (human) (peptide, as listed by the source): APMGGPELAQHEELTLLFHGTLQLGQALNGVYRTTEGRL
Chain of peptide from the N-terminal coiled-coil region of human ANGPTL3 (hANGPTL3 peptide, SEQ ID NO: 338) (human) (peptide, as listed by the source): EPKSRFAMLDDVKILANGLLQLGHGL

As to “monoclonal mouse anti-human Fc antibody (GE, # BR-1008-39)”, the 500 nM hANGPTL3 peptide Bound (RU) in experiment [1] was determined as 0 RU. The 500 nM hANGPTL8 peptide Bound (RU) in experiment [2] came to 3 RU. This substance also gave a 500 nM hAngPTL4 peptide Bound (RU) in experiment [3] of 0 RU.
